This is an account of results in patent US20150196533A1, “METHOD FOR CONCURRENT TREATMENT OF PAIN AND DEPRESSION” (The General Hospital Corporation, priority 2012, published 2015).

“Also recorded” adds a separate entry of the source.

The subject of one assay is IDO1. As to the kind of experiment: Intra-hippocampal microinjection in naive rats: hippocampal IDO1 mRNA (real-time PCR). In kind it is in vivo, rat. The note with it: 0.1 μg once daily x 7 d into the left hippocampus of naive rats; P<0.05. Here is the method: (§1) Under brief isoflurane anesthesia, a guide cannula (26 gauge, Plasticsone) was implanted just above the hippocampus (AP: −3.6 mm; left: +2.0 mm from Bregma; depth: −4.0 mm from skin) (Paxinos, G., and Watson, C. 1998. The rat brain in stertaxic coordinates. New York: Academic Press). An injection needle (33 gauge, Plasticsone) was inserted through the guide cannula and drug solution or vehicle (0.5 μl) was slowly injected over 5 min using a Hamilton syringe. Locations of the cannula placement were confirmed at the time of tissue harvest (data not shown).
Total RNA was isolated from hippocampal samples using TRIzol reagent (Invitrogen). Four μg of total RNA was used to synthesize the first strand cDNA using SuperScript III kit (Invitrogen). Four μl of cDNA was put into 20 μl vessel with 1 μl of 20× TaqMan Gene Expression Assay. Taqman Gene Expression Assays (Applied Biosystems) containing primers and a Taqman probe were used to quantify each gene of interest. The genes examined were IL-6 (Rn01410330 m1, M26744.1) and IDO1 (Rn00576778 m1, AF312699.1) for rats and IL-6 (Mm00446190 m1, X54542.1) and IDO1 (Mm00492586 m1, M69109.1) for mice. […] The RNA expression of GAPDH was measured as control.
For orientation: Quantitative PCR measures a nucleic acid by following its amplification.

Assay [1] has as its system IDO1 expression in hippocampal organotypic slice culture. As to the kind of experiment: IL-6 exposure of organotypic hippocampal slice culture: IDO1 expression and activity. In kind it is cell-based, rat. The note with it: 100 ng/ml for 24 hours. From the text: According to a modified method (Stoppini, L., Buchs, P. A., and Muller, D. 1991. A simple method for organotypic cultures of nervous tissue. J Neurosci. Methods 37:173-182.; Fu, X., Zunich, S. M., O'Connor, J. C., Kavelaars, A., Dantzer, R., and Kelley, K. W. 2010. Central administration of lipopolysaccharide induces depressive-like behavior in vivo and activates brain indoleamine 2,3 dioxygenase in murine organotypic hippocampal slice cultures. J Neuroinflammation. 7:43) organotypic hippocampal cultures were prepared using hippocampus slices from 5 to 8-day-old Wistar rats. Rat pups were euthanized by decapitation and brains were rapidly removed and the hippocampus was separated from the brain. Hippocampal slices (350 μm in thickness) were made using a Mcllwain tissue chopper (Campden Instruments Ltd) and placed in the Gey's balanced salt solution (Sigma-Aldrich) with 2 mg/ml D-glucose. Slices were then placed on 30-mm Millicell-CM (Millipore) porous (0.4 μm) membranes. These membranes were transferred into six-well culture plates filled with an incubation medium (1 ml) consisting of 50% vol/vol minimal essential medium, 25% heat-inactivated horse serum and 25% HBSS (Invitrogen), supplemented with 25 mM D-glucose. Plates were incubated in a humidified atmosphere of 5% CO2 and 95% air at 37° C. Culture medium was changed 3 times a week. Slices were treated with 100 ng/ml IL-6 or vehicle and collected 24 hours later for assays (Hakkoum, D., Stoppini, L., and Muller, D. 2007. Interleukin-6 promotes sprouting and functional recovery in lesioned organotypic hippocampal slice cultures. J Neurochem. 100:747-757).
Rats were sacrificed under pentobarbital anesthesia. The hippocampus was separated from the brain and immediately stored on dry ice and kept at −80° C. until use. Samples were homogenized in a lysis buffer with SDS containing a cocktail of proteinase inhibitors (Roche). Samples were separated on an SDS-PAGE gel (4%-15% gradient gel; Bio-Rad) and transferred to polyvinylidene difluoride filter (PVDF) membranes (Millipore). Membranes were blocked with 5% nonfat dried milk for 1 hour at room temperature and incubated over night at 4° C. on a rocker with one of following primary antibody: 1:200 IDO1 (Santa Cruz Biotechnology Inc.; rabbit polyclonal antibody), 1:200 IDO1 (Novius Biologicals; rabbit polyclonal antibody), 1:500 JAK2 (Santa Cruz Biotechnology Inc.; rabbit polyclonal antibody), 1:1,000 STAT3 (Millipore; rabbit polyclonal antibody), 1:5,000 p-STAT3 (Abcam; rabbit monoclonal antibody). After membranes were washed with PBS×4, membranes were incubated with 1:8,000 HRP conjugated secondary antibody (Amersham, Biosciences) for 1 hour at room temperature on a rocker. The membranes were washed with PBS×4 and blots were visualized in enhanced Chemiluminescent (ECL) solution (Pierce) for 5 minutes and exposed to hyperfilms (Kodak) for 15 minutes. Blots were again incubated in a Stripping buffer (Pierce) for 15 minutes at room temperature on a rocker and reprobed with 1:12,000 anti-β-actin antibody (Abeam Inc.) as a loading control. Western blots were made in triplicates. Band density was measured and normalized against a loading control band.
Total RNA was isolated from hippocampal samples using TRIzol reagent (Invitrogen). […] Taqman Gene Expression Assays (Applied Biosystems) containing primers and a Taqman probe were used to quantify each gene of interest. […]

Another assay concerns naive rats. As to the kind of experiment: Intra-hippocampal microinjection in naive rats: nociceptive and depressive behavior. The note with it: 0.1 μg once daily x 7 d into the left hippocampus of naive rats. It is filed as in vivo, rat. Here is the method:
as §1
Animals were habituated to a test setting (30-min session) for three consecutive days. Thermal withdrawal threshold was assessed using the Hargreaves' apparatus and method (Hargreaves, K., et al., 1988. A new and sensitive method for measuring thermal nociception in cutaneous hyperalgesia. Pain 32:77-88). Mechanical withdrawal threshold was assessed using von Frey filaments (Tal, M., and Bennett, G. J. 1994. Extra-territorial pain in rats with a peripheral mononeuropathy: mechano-hyperalgesia and mechano-allodynia in the territory of an uninjured nerve. Pain 57:375-382).
FST was performed according to the original method by Porsolt et al (Porsolt, R. D., Le, P. M., and Jalfre, M. 1977. Depression: a new animal model sensitive to antidepressant treatments. Nature 266:730-732). The total duration of immobility (non-swimming) within a 5-min session was recorded as immobility scores (in seconds) and compared among groups.

B1: IL-6: exogenous IL-6 (recombinant rat IL-6), proinflammatory cytokine (protein, UniProt P20607 25-211, looked up)
Interleukin-6: FPTSQVRRGDFTEDTTHNRPVYTTSQVGGLITYVLREILEMRKELCNGNSDCMNSDDALSENNLKLPEIQRNDGCFQTGYNQEICLLKICSGLLEFRFYLEFVKNNLQDNKKDKARVIQSNTETLVHIFKQEIKDSYKIVLPTPTSNALLMEKLESQKEWLRTKTIQLILKALEEFLKVTMRSTRQT
On to B1, for which the “hippocampal IDO1 mRNA expression (FIG. 9H)” value in the assay with IDO1 is recorded as “increased IDO1 mRNA expression in the hippocampus; also recorded: up-regulated the hippocampal IDO1 mRNA expression”. Also, the “IDO1 immunoreactivity (FIG. 8F)” value in assay [1] is “increased IDO1 immunoreactivity; also recorded: increased the expression of IDO1”. For the same molecule, in assay [1] (P<0.05), the “IDO1 mRNA expression (real-time PCR; FIG. 8G)” value is “up-regulated; also recorded: increased the expression of IDO1”, the “IDO1 protein expression (Western blot; FIG. 8H)” value was “up-regulated; also recorded: increased the expression of IDO1”, the “kynurenine/tryptophan ratio in the culture medium (HPLC; FIG. 8I)” value is on record as “significantly increased; also recorded: increased KYN/TRP ratio” and the “serotonin/tryptophan ratio in the culture medium (HPLC; FIG. 8I)” value is “decreased 5-HT/TRP ratio”. The “depressive behavior in forced swimming test (FIG. 9G)” value in the assay on naive rats (P<0.001) was “induced depressive behavior in forced swimming test”. For the same molecule, the “thermal hyperalgesia on the right hindpaw (FIG. 9F)” value in the assay with naive rats (P<0.01) was “induced”. Moreover, in the assay on naive rats (P<0.05 vs vehicle), the “mechanical allodynia on the right hindpaw (FIG. 9E)” value is on record as “induced”.
